# Experimental data published in US20170029907, “GENERALIZABLE ASSAY FOR VIRUS CAPSID ASSEMBLY” (Indiana University Research and Technology Corporation, published 2017).
# T1: BMV capsid protein (Brome mosaic virus, UniProt P03602 P03602:1-189)
# T1 sequence: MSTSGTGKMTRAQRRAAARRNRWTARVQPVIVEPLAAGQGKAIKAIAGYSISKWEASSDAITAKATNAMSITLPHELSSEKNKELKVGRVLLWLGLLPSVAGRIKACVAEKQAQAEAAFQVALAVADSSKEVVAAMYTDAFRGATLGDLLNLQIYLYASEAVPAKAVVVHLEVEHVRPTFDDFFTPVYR
# Experiments:
# [1] = target: T2, HBV capsid protein Cp183 (Hepatitis B virus, UniProt P03146 P03146:1-183); assay: intermolecular FRET and light scattering; 1 uM DNA; maximum near 3:1 then signal falls by dilution; conditions: chain copies: dimer (stated); assembles into capsids; label: Cy3 (D27) or Cy5 (A27)
# T2 sequence (P03146 whole entry, one chain of several): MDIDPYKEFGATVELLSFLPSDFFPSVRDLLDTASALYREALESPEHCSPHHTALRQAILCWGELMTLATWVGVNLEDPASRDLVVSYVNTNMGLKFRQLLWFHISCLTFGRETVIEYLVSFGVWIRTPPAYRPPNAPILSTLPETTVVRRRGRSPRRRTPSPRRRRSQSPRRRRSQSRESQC
# Description: (§1) Assembly was monitored by fluorescence. All reactions were carried out at 21° C. For the Cy3 donor and Cy5 acceptor fluorophores, fluorescence emission spectra for FRET experiments was measured from 555-710 nm. For measuring FRET in titrations, donor and acceptor excitation wavelengths were 545 and 645 nm respectively. Acceptor emission was measured at 670 nm.
# Using the optimized A:D ratio, we evaluated the sensitivity of this FRET assay for assembly. This was necessary to determine if reaction volumes and concentrations could be lowered to physiologically relevant levels. […] The minimum detectable concentration of DNA in these assays is 50 nM. Initial results shown in FIG. 1 are protein titrations of 1 μM DNA showing the assay works under more aggressive conditions. Assembly led to an increase in FRET, that was maximal at a specific protein concentration and then fell as more protein was added.
# [2] = target: T1, BMV capsid protein; assay: intermolecular FRET; 1 uM DNA; saturates at about 10 proteins per oligo; conditions: chain copies: assembles into capsids; label: Cy3 (D27) or Cy5 (A27)
# [3] = target: T3, RRV capsid protein (Ross River virus, UniProt P08491 P08491:1-270); assay: intermolecular FRET; 1 uM DNA; saturates at 4 proteins per oligo; conditions: chain copies: assembles into core-like particles; about 4 per oligonucleotide; label: Cy3 (D27) or Cy5 (A27)
# T3 sequence (P08491 1-270, one chain of several): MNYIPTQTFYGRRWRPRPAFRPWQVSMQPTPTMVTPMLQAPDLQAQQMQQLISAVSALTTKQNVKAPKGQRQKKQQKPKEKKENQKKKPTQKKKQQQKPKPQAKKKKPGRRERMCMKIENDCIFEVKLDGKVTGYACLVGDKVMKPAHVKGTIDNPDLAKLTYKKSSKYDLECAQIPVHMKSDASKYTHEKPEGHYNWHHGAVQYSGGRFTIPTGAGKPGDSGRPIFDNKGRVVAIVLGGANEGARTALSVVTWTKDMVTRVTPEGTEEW
# [4] = target: T3, RRV capsid protein; assay: light scattering, DLS and EM; 50-170 mM NaCl; ionic strength dependent pseudo-critical concentration; conditions: chain copies: assembles into core-like particles; about 4 per oligonucleotide
# [5] = target: T2, HBV capsid protein Cp183; assay: FRET increase; 0.1 uM DNA; conditions: chain copies: dimer (stated); assembles into capsids; label: Cy3 and Cy5 at the two ends
# Description: as §1
# For comparison, DA was titrated with Cp183 and the results were compared to those obtained with GagΔ. FIGS. 4A and 4B show the spectra for HIV-1 GagΔ and HBV Cp183 respectively. Spectra obtained by titrating DA with GagΔ and Cp183 both show increases in FRET signal.
binder,measurement,setting,value
TACCCACGCTCTCGCAGTCATAATTCG (ssDNA) [27-mer D27/A27 1:1 mix],binding result,[1],binds
same,binding result,[2],binds
same,binding result,[3],binds
TACCCACGCTCTCGCAGTCATAATTCG (ssDNA) [unlabeled 27-mer],binding result,[4],binds
TGTGTGTGTGAAAAAAAAAAAAAAAAAAAATGTGTGTGTG (ssDNA) [DA 40-mer],binding result,[5],binds
